These results are taken from patent US20250011363A1, “OPTIMIZED SHORTENED PEPTIDE THAT BINDS TO ACETYLCHOLINE RECEPTOR, AND USE THEREOF” (SKINMED CO., LTD., priority 2021, published 2025).

In this assay the target is acetylcholine receptor. The assay can be described thus: SPR, receptor on CM5 chip, peptide 10 µM.

The molecule KRVQQK [6mer-1-124] showed a Binding affinity (RU) of 137 RU.
With KRRYTK [6mer-1-121], the Binding affinity (RU) turned out to be 148 RU.
Next, KRRRQK [6mer-1-476]: 154 RU.
For RRVYQR [6mer-1-496], the Binding affinity (RU) was 148 RU.
Next, RRSLTR [6mer-1-479]: 135 RU.
Next, RKRFLR [6mer-1-133]: 154 RU; KKLYLR [6mer-1-484]: 154 RU.
KKLFSR [6mer-1-494]: the Binding affinity (RU) was found to be 128 RU.
The same measure for RRWYRR [6mer-1-485]: 126 RU; for KKVLSK [6mer-1-473]: 154 RU.
For RKQVRK [6mer-1-482], the Binding affinity (RU) stood at 133 RU.
With KRQVTK [6mer-1-483], the Binding affinity (RU) turned out to be 151 RU.
The same measure for KKVITK [6mer-1-489]: 148 RU; for KRWRCK [6mer-1-481]: 133 RU; for KRVLYK [6mer-1-501]: 154 RU.
For RKRQQK [6mer-1-498], the Binding affinity (RU) turned out to be 139 RU.
RRWRQK [6mer-1-492] came in with a Binding affinity (RU) of 139 RU.
The same measure for KRRLCK [6mer-1-503]: 151 RU; for RKLFYR [6mer-1-499]: 149 RU.
The molecule RRQVYR [6mer-1-132] returned a Binding affinity (RU) of 153 RU.
Next, RRGVQK [6mer-1-123]: 148 RU; KRQQTK [6mer-1-477]: 145 RU; RKLQSK [6mer-1-500]: 151 RU.
The same measure for KKWVYR [6mer-1-470]: 148 RU.
The same measure for KKWIQR [6mer-1-126]: 148 RU.
Regarding KRQRCK [6mer-1-472], the Binding affinity (RU) was found to be 142 RU.
Turning to KKWRCK [6mer-1-471], the Binding affinity (RU) came out at 123 RU.
KRQVRK [6mer-1-486] returned a Binding affinity (RU) of 151 RU.
Next, KKSIYR [6mer-1-134]: 128 RU; KRQVSR [6mer-1-135]: 123 RU.
The same measure for KKLIRK [6mer-1-122]: 139 RU.
The same measure for RRLYRR [6mer-1-468]: 153 RU; for KRRLCR [6mer-1-125]: 135 RU; for KRRQLR [6mer-1-497]: 133 RU.
In the case of KRVIYR [6mer-1-127], the Binding affinity (RU) is 147 RU.
Next, RKQVLR [6mer-1-130]: 142 RU; KKWYSK [6mer-1-488]: 135 RU.
On to KKQFYK [6mer-1-480], for which the Binding affinity (RU) was 121 RU.
The same measure for RKVRYK [6mer-1-478]: 139 RU; for KRGYLR [6mer-1-493]: 131 RU.
Next, RKGRRK [6mer-1-487]: 121 RU.
The same measure for RKQFYR [6mer-1-128]: 126 RU; for RKLQTK [6mer-1-475]: 148 RU.
Regarding KKLFRR [6mer-1-490], the Binding affinity (RU) came out at 133 RU.
The same measure for RKGFQR [6mer-1-495]: 126 RU; for RKLFSR [6mer-1-502]: 146 RU; for RRRQSK [6mer-1-129]: 121 RU.
The same measure for KRLFSK [6mer-1-474]: 121 RU; for KKLIYR [6mer-1-469]: 139 RU; for KRGIQR [6mer-1-131]: 142 RU.
RKLRLR [6mer-1-491] returned a Binding affinity (RU) of 137 RU.
